Substitutions are numbered along the chain they refer to. Names may count otherwise. One block for each binder: values may come before it.
Target: interferon receptor on MCF-7 breast carcinoma cells
Test: cell-based or functional assay

EC50, stimulation of Luciferase activity (pISRE-Luc reporter gene in MCF-7 cells): 5.67 pM
B1: natural wild-type IFNα-5 protein (ligand)
chain: CDLPQTHSLSNRRTLMIMAQMGRISPFSCLKDRHDFGFPQEEFDGNQFQKAQAISVLHEMIQQTFNLFSTKDSSATWDETLLDKFYTELYQQLNDLEACMMQEVGVEDTPLMNVDSILTVRKYFQRITLYLTEKKYSPCAWEVVRAEIMRSFSLSANLQERLRRKE

EC50, stimulation of Luciferase activity (pISRE-Luc reporter gene in MCF-7 cells): 93.3 pM
ratio of the EC50 value for the mutated protein over the EC50 value for the wild-type protein (pISRE-Luc reporter gene in MCF-7 cells): 18.3 fold
B2: C122S mutated IFNα-5 (ligand)
chain: B1 chain with C99S
